Source: the supplement of paper PMC11246515
± gives the standard deviation of the averaged measurements.

Assay: total protein half-life in vivo (active degradation + dilution); higher = more stable protein
[1] = E. coli NCM3722 delta-clpP delta-lon delta-hslV, growth: N-lim chemostat, doubling time 6 h
[2] = E. coli NCM3722 delta-clpP, growth: N-lim chemostat, doubling time 6 h
[3] = E. coli NCM3722 delta-lon, growth: N-lim chemostat, doubling time 6 h
[4] = wild type E. coli NCM3722, growth: C-lim chemostat, doubling time 6 h
[5] = wild type E. coli NCM3722, growth: C-lim chemostat, doubling time 12 h
[6] = wild type E. coli NCM3722, growth: N-lim chemostat, doubling time 6 h
[7] = wild type E. coli NCM3722, growth: N-lim chemostat, doubling time 12 h
[8] = wild type E. coli NCM3722, growth: P-lim chemostat, doubling time 6 h
[9] = wild type E. coli NCM3722, growth: P-lim chemostat, doubling time 12 h
[10] = wild type E. coli NCM3722, growth: C-lim chemostat, doubling time 3 h
[11] = E. coli NCM3722 delta-hslV, growth: N-lim chemostat, doubling time 6 h
[12] = E. coli NCM3722 delta-smpB, growth: N-lim chemostat, doubling time 6 h

Row | Sequence | total protein half-life in vivo [1] [h] | total protein half-life in vivo [2] [h] | total protein half-life in vivo [3] [h] | total protein half-life in vivo [4] [h] | total protein half-life in vivo [5] [h] | total protein half-life in vivo [6] [h] | total protein half-life in vivo [7] [h] | total protein half-life in vivo [8] [h] | total protein half-life in vivo [9] [h] | total protein half-life in vivo [10] [h] | total protein half-life in vivo [11] [h] | total protein half-life in vivo [12] [h]
1 | MRWILFILFCLLGAPAHAVSIPGVTTTTTTDSTTEPAPEPDIEQKKAAYGALADVLDNDTSRKELIDQLRTVAATPPAEPVPKIVPPTLVEEQTVLQKVTEVSRHYGEALSARFGQLYRNITGSPHKPFNPQTFSNALTHFSMLAVLVFGFYWLIRLCALPLYRKMGQWARQKNRERSNWLQLPAMIIGAFIIDLLLLALTLFVGQVLSDNLNAGSRTIAFQQSLFLNAFALIEFFKAVLRLIFCPNVAELRPFTIQDESARYWSRRLSWLSSLIGYGLIVAVPIISNQVNVQIGALANVIIMLCMTVWALYLIFRNKKEITQHLLNFAEHSLAFFSLFIRAFALVWHWLASAYFIVLFFFSLFDPGNSLKFMMGATVRSLAIIGIAAFVSGMFSRWLAKTITLSPHTQRNYPELQKRLNGWLSAALKTARILTVCVAVMLLLSAWGLFDFWNWLQNGAGQKTVDILIRIALILFFSAVGWTVLASLIENRLASDIHGRPLPSARTRTLLTLFRNALAVIISTITIMIVLSEIGVNIAPLLAGAGALGLAISFGSQTLVKDIITGVFIQFENGMNTGDLVTIGPLTGTVERMSIRSVGVRQDTGAYHIIPWSSITTFANFVRGIGSVVANYDVDRHEDADKANQALKDAVAELMENEEIRGLIIGEPNFAGIVGLSNTAFTLRVSFTTLPLKQWTVRFALDSQVKKHFDLAGVRAPVQTYQVLPAPGATPAEPLPPGEPTL | 4.93 ± 1 | 6.1 ± 0.28 | 5.15 ± 0.43 | 2.55 ± 2 | 6.41 ± 4.3 | 4.92 | 9.64 ± 0.63 | 6.83 ± 0.65 | 13 ± 1.4 |  |  | 
2 | MSRIEAVFFDCDGTLVDSEVICSRAYVTMFQEFGITLDPEEVFKRFKGVKLYEIIDIVSLEHGVTLAKTEAEHVYRAEVARLFDSELEAIEGAGALLSAITAPMCVVSNGPNNKMQHSMGKLNMLHYFPDKLFSGYDIQRWKPDPALMFHAAKAMNVNVENCILVDDSVAGAQSGIDAGMEVFYFCADPHNKPIVHPKVTTFTHLSQLPELWKARGWDITA |  |  | 2.73 | 4.76 | 9.19 |  | 2.64 |  |  | 2.09 |  | 
3 | MQNNEQTEYKTVRGLTRGLMLLNMLNKLDGGASVGLLAELSGLHRTTVRRLLETLQEEGYVRRSPSDDSFRLTIKVRQLSEGFRDEQWISALAAPLLGDLLREVVWPTDVSTLDVDAMVVRETTHRFSRLSFHRAMVGRRLPLLKTASGLTWLAFCPEQDRKELIEMLASRPGDDYQLAREPLKLEAILARARKEGYGQNYRGWDQEEKIASIAVPLRSEQRVIGCLNLVYMASAMTIEQAAEKHLPALQRVAKQIEEGVESQAILVAGRRSGMHLR | 6.32 ± 0.84 | 2.12 | 2.59 | 2.35 ± 0.052 | 3.26 ± 1.1 | 1.85 ± 0.27 |  | 1.72 ± 0.43 | 2.94 ± 0.64 | 1.55 ± 0.24 | 1.85 ± 0.042 | 1.26
4 | MALTAALKAQIAAWYKALQEQIPDFIPRAPQRQMIADVAKTLAGEEGRHLAIEAPTGVGKTLSYLIPGIAIAREEQKTLVVSTANVALQDQIYSKDLPLLKKIIPDLKFTAAFGRGRYVCPRNLTALASTEPTQQDLLAFLDDELTPNNQEEQKRCAKLKGDLDTYKWDGLRDHTDIAIDDDLWRRLSTDKASCLNRNCYYYRECPFFVARREIQEAEVVVANHALVMAAMESEAVLPDPKNLLLVLDEGHHLPDVARDALEMSAEITAPWYRLQLDLFTKLVATCMEQFRPKTIPPLAIPERLNAHCEELYELIASLNNILNLYMPAGQEAEHRFAMGELPDEVLEICQRLAKLTEMLRGLAELFLNDLSEKTGSHDIVRLHRLILQMNRALGMFEAQSKLWRLASLAQSSGAPVTKWATREEREGQLHLWFHCVGIRVSDQLERLLWRSIPHIIVTSATLRSLNSFSRLQEMSGLKEKAGDRFVALDSPFNHCEQGKIVIPRMRVEPSIDNEEQHIAEMAAFFRKQVESKKHLGMLVLFASGRAMQRFLDYVTDLRLMLLVQGDQPRYRLVELHRKRVANGERSVLVGLQSFAEGLDLKGDLLSQVHIHKIAFPPIDSPVVITEGEWLKSLNRYPFEVQSLPSASFNLIQQVGRLIRSHGCWGEVVIYDKRLLTKNYGKRLLDALPVFPIEQPEVPEGIVKKKEKTKSPRRRRR | 5.64 ± 0.42 | 4.6 ± 0.54 | 4.265 ± 0.026 | 3.93 ± 0.69 | 9.99 ± 0.84 | 4.18 ± 0.2 | 6.77 ± 1.1 | 4.57 ± 0.25 | 8.11 ± 0.31 | 2.59 ± 0.09 | 4.38 ± 0.61 | 4.63 ± 0.33
5 | MNAKIIASLAFTSMFSLSTLLSPAHAEEQEKALNFGIISTESQQNLKPQWTPFLQDMEKKLGVKVNAFFAPDYAGIIQGMRFNKVDIAWYGNLSAMEAVDRANGQVFAQTVAADGSPGYWSVLIVNKDSPINNLNDLLAKRKDLTFGNGDPNSTSGFLVPGYYVFAKNNISASDFKRTVNAGHETNALAVANKQVDVATNNTENLDKLKTSAPEKLKELKVIWKSPLIPGDPIVWRKNLSETTKDKIYDFFMNYGKTPEEKAVLERLGWAPFRASSDLQLVPIRQLALFKEMQGVKSNKGLNEQDKLAKTTEIQAQLDDLDRLNNALSAMSSVSKAVQ |  |  |  |  |  |  |  | 1.02 ± 0.21 | 2.63 ± 1.1 |  |  | 
6 | MDLLIVLTYVALAWAVFKIFRIPVNQWTLATAALGGVFLVSGLILLMNYNHPYTFTAQKAVIAIPITPQVTGIVTEVTDKNNQLIQKGEVLFKLDPVRYQARVDRLQADLMTATHNIKTLRAQLTEAQANTTQVSAERDRLFKNYQRYLKGSQAAVNPFSERDIDDARQNFLAQDALVKGSVAEQAQIQSQLDSMVNGEQSQIVSLRAQLTEAKYNLEQTVIRAPSNGYVTQVLIRPGTYAAALPLRPVMVFIPEQKRQIVAQFRQNSLLRLKPGDDAEVVFNALPGQVFHGKLTSILPVVPGGSYQAQGVLQSLTVVPGTDGVLGTIELDPNDDIDALPDGIYAQVAVYSDHFSHVSVMRKVLLRMTSWMHYLYLDH [P0AFV0] | 3.52 |  |  |  |  |  |  |  |  |  |  | 
